Source: the supplement of paper PMC9112550, “Optimization of the antimicrobial peptide Bac7 by deep mutational scanning” (BMC Biology, 2022)

Tested on: Escherichia coli TOP10
Assay: shrunken log2 fold change of peptide-encoding DNA abundance (4.5 h post-induction vs induction); higher = less antimicrobial activity (less host growth inhibition)
Settings: time post-induction: 4.5 h; library: site-saturation at positions 5, 18, 19, 20
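Also: peptides expressed intracellularly from a pBAD plasmid library in pooled LB shake-flask culture, induced with 0.3% L-arabinose, DNA abundance read by NGS, three biological replicates, DESeq2 with apeglm shrinkage.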

Sequence	shrunken log2 fold change
RRIRERPPRLPRPRPRPHTWPRP	-0.33
RRIRRRPPRLPRPRPRPWPHPRP	-0.0473
RRIRIRPPRLPRPRPRPWVRPRP	0.0146
RRIRKRPPRLPRPRPRPPWDPRP	0.68
RRIRVRPPRLPRPRPRPHSQPRP	0.288
RRIRDRPPRLPRPRPRPSMGPRP	-0.11
RRIRIRPPRLPRPRPRPAQIPRP	0.0984
RRIRPRPPRLPRPRPRPPWDPRP	0.312
RRIRARPPRLPRPRPRPKTWPRP	0.261
RRIRVRPPRLPRPRPRPNFHPRP	-0.115
RRIRIRPPRLPRPRPRPTNFPRP	-0.535
RRIRIRPPRLPRPRPRPIKEPRP	-0.021
RRIRSRPPRLPRPRPRPIDIPRP	-0.3
RRIRRRPPRLPRPRPRPSVDPRP	0.168
RRIRCRPPRLPRPRPRPQNWPRP	-0.0693
RRIRERPPRLPRPRPRPIWEPRP	0.0512
RRIRSRPPRLPRPRPRPENVPRP	0.0202
RRIRMRPPRLPRPRPRPRPHPRP	1.05
RRIRERPPRLPRPRPRPWLYPRP	0.102
RRIRRRPPRLPRPRPRPGSYPRP	-0.0811
RRIRRRPPRLPRPRPRPHWRPRP	0.0155
RRIRRRPPRLPRPRPRPFGGPRP	0.0433

Sequence	shrunken log2 fold change
RRIRIRPPRLPRPRPRPHYVPRP	-0.342
RRIRVRPPRLPRPRPRPMIQPRP	-0.403
RRIRTRPPRLPRPRPRPPNWPRP	0.845
RRIRPRPPRLPRPRPRPYEWPRP	-0.874
RRIRPRPPRLPRPRPRPWVEPRP	0.17
RRIRERPPRLPRPRPRPEAMPRP	0.0431
RRIRMRPPRLPRPRPRPLWNPRP	-0.182
RRIRVRPPRLPRPRPRPYKHPRP	-0.81
RRIRGRPPRLPRPRPRPEDHPRP	0.536
RRIRVRPPRLPRPRPRPTCDPRP	-0.156
RRIRNRPPRLPRPRPRPYFIPRP	-0.645
RRIRDRPPRLPRPRPRPKGEPRP	0.0647
RRIRGRPPRLPRPRPRPDRPPRP	0.376
RRIRIRPPRLPRPRPRPVMFPRP	-0.255
RRIRQRPPRLPRPRPRPYHHPRP	-0.186
RRIRDRPPRLPRPRPRPDWIPRP	0.189
RRIRIRPPRLPRPRPRPVNNPRP	-0.272
RRIRERPPRLPRPRPRPHGDPRP	-0.0135
RRIRCRPPRLPRPRPRPFVVPRP	-0.633
RRIRARPPRLPRPRPRPLGQPRP	0.432
RRIRSRPPRLPRPRPRPTDEPRP	-0.148
RRIRERPPRLPRPRPRPYEPPRP	0.029

Sequence	shrunken log2 fold change
RRIRARPPRLPRPRPRPWAFPRP	0.222
RRIRIRPPRLPRPRPRPYYSPRP	-0.213
RRIRTRPPRLPRPRPRPFRAPRP	-0.597
RRIRVRPPRLPRPRPRPEVPPRP	0.326
RRIRKRPPRLPRPRPRPVPCPRP	0.0663
RRIRFRPPRLPRPRPRPTEHPRP	-0.316
RRIRRRPPRLPRPRPRPEINPRP	-0.0385
RRIRSRPPRLPRPRPRPRKAPRP	0.0188
RRIRPRPPRLPRPRPRPGPSPRP	0.0312
RRIRDRPPRLPRPRPRPNQTPRP	0.0331
RRIRNRPPRLPRPRPRPQKTPRP	-0.0033
RRIRYRPPRLPRPRPRPEWTPRP	-0.247
RRIRQRPPRLPRPRPRPAHIPRP	-0.137
RRIRPRPPRLPRPRPRPLHVPRP	-0.163
RRIRFRPPRLPRPRPRPDHRPRP	0.0119
RRIRPRPPRLPRPRPRPWVTPRP	-0.00388
RRIRTRPPRLPRPRPRPYDKPRP	-0.389
RRIRIRPPRLPRPRPRPHVHPRP	-0.165
RRIRERPPRLPRPRPRPMSFPRP	-0.314
RRIRWRPPRLPRPRPRPCTWPRP	-0.217
RRIRRRPPRLPRPRPRPRIEPRP	0.261
RRIRVRPPRLPRPRPRPSACPRP	-0.768

Sequence	shrunken log2 fold change
RRIRDRPPRLPRPRPRPMPQPRP	0.0354
RRIRVRPPRLPRPRPRPVYFPRP	-0.334
RRIRHRPPRLPRPRPRPAKEPRP	0.0203
RRIRSRPPRLPRPRPRPIWPPRP	0.0426
RRIRWRPPRLPRPRPRPILMPRP	-0.286
RRIRFRPPRLPRPRPRPIKWPRP	-0.101
RRIRQRPPRLPRPRPRPVHTPRP	-0.168
RRIRQRPPRLPRPRPRPKCPPRP	-0.0714
RRIRHRPPRLPRPRPRPSICPRP	0.0424
RRIRFRPPRLPRPRPRPIQSPRP	-0.127
RRIRDRPPRLPRPRPRPGLYPRP	0.199
RRIRERPPRLPRPRPRPMSTPRP	-0.516
RRIRMRPPRLPRPRPRPQMVPRP	-0.243
RRIRPRPPRLPRPRPRPNKHPRP	-0.374
RRIRPRPPRLPRPRPRPWPWPRP	0.0232
RRIRSRPPRLPRPRPRPKSKPRP	-0.0869
RRIRLRPPRLPRPRPRPQDDPRP	-0.224
RRIRMRPPRLPRPRPRPHKMPRP	0.193
RRIRQRPPRLPRPRPRPKQFPRP	0.102
RRIRPRPPRLPRPRPRPGLCPRP	0.399
RRIRIRPPRLPRPRPRPQNGPRP	-0.294
RRIRSRPPRLPRPRPRPAQNPRP	0.241

Sequence	shrunken log2 fold change
RRIRTRPPRLPRPRPRPEPDPRP	0.286
RRIRWRPPRLPRPRPRPKIKPRP	-0.0556
RRIRHRPPRLPRPRPRPGKLPRP	0.169
RRIRMRPPRLPRPRPRPGMGPRP	0.902
RRIRGRPPRLPRPRPRPVIGPRP	0.388
RRIRMRPPRLPRPRPRPPWGPRP	0.686
RRIRARPPRLPRPRPRPSPRPRP	0.818
RRIRIRPPRLPRPRPRPMEEPRP	-0.00798
RRIRFRPPRLPRPRPRPTDPPRP	-0.0408
RRIRLRPPRLPRPRPRPHHGPRP	-0.0757
RRIRARPPRLPRPRPRPWPIPRP	0.179
RRIRERPPRLPRPRPRPESAPRP	0.056
RRIRTRPPRLPRPRPRPMSVPRP	-0.00965
RRIRLRPPRLPRPRPRPMRVPRP	0.115
RRIRGRPPRLPRPRPRPHNGPRP	0.0528
RRIRGRPPRLPRPRPRPGQRPRP	0.345
RRIRLRPPRLPRPRPRPGVEPRP	0.0194
RRIRWRPPRLPRPRPRPCTTPRP	-0.183
RRIRHRPPRLPRPRPRPLRNPRP	-0.0741
RRIRLRPPRLPRPRPRPIYEPRP	-0.291
RRIRRRPPRLPRPRPRPVAQPRP	0.324
